Blank lines part the entries; values can stand above or below the binder they belong to.
B3: his-tagged wild-type gremlin (gremlin^WT), rat (natural protein, UniProt O35793 25-184, looked up)
chain: KKKGSQGAIPPPDKAQHNDSEQTQSPPQPGSRTRGRGQGRGTAMPGEEVLESSQEALHVTERKYLKRDWCKTQPLKQTIHEEGCNSRTIINRFCYGQCNSFYIPRHIRKEEGSFQSCSFCKPKKFTTMMVTLNCPELQPPTKKKRVTRVKQCRCISIDLD
notes: secreted into the medium; covalent homodimer through Cys141; The IMAC-purified preparation holds monomer and dimer (used for non-reducing SDS-PAGE and SEC); the heparin 1.2 M NaCl fraction holds only the disulfide-linked dimer (98.5% purity) and is the form used in ELISA, SPR and cell assays; N-glycosylated and non-glycosylated forms are present; also called gremlin^WT dimer; dimeric gremlin^WT; …

Tests used:
[1] = molecular target: extracellular domain D1-7 of human VEGFR2 (ECD-VEGFR2) (human); test: SPR; BIAcore X; ECD-VEGFR2 immobilized on CM5 sensorchip (0.036-0.064 pmol/mm^2); gremlin 100 ng/mL to 4 ug/mL injected in HBS-EP; equilibrium responses fitted to the Langmuir equation for monovalent binding
[2] = molecular target: the molecule itself; test: non-reducing SDS-PAGE with Western blot; conditioned medium of FGF2-T-MAE cells (treated with increasing H2O2 for 1 hour, then 4 hours fresh medium) immunoprecipitated with anti-gremlin antibody, WB under non-reducing conditions
[3] = molecular target: the molecule itself; test: non-reducing SDS-PAGE with Western blot; recombinant his-tagged gremlin purified by IMAC (and heparin-affinity chromatography), SDS-PAGE without beta-mercaptoethanol, anti-gremlin WB, silver staining
[4] = molecular target: B3; test: ELISA; 96-well plates coated with 250 ng/mL of human BMP4, increasing concentrations of gremlin, bound gremlin detected with anti-gremlin antibody; conditions: both partners purified
[5] = molecular target: T1, his-tagged gremlin^C141A mutant, rat (rat, UniProt O35793 25-184, C141A); test: as above; conditions: both partners purified
T1 construct: secreted into the medium; monomer; also called gremlin^C141A monomer; monomeric gremlin^C141A; not shown: His tag, C-terminal, kept
T1 sequence (looked up): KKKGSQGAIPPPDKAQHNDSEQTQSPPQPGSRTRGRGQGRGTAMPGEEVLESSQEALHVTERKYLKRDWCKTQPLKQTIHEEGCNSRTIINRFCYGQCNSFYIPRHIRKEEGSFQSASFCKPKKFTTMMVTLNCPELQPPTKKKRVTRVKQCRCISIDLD

B2: endogenous murine gremlin (natural protein, UniProt O70326 25-184, looked up)
chain: KKKGSQGAIPPPDKAQHNDSEQTQSPPQPGSRTRGRGQGRGTAMPGEEVLESSQEALHVTERKYLKRDWCKTQPLKQTIHEEGCNSRTIINRFCYGQCNSFYIPRHIRKEEGSFQSCSFCKPKKFTTMMVTLNCPELQPPTKKKRVTRVKQCRCISIDLD
notes: gremlin, mouse, endogenous; immunoprecipitated with anti-gremlin antibody; Seen as 20-24 kDa monomers and 40-44 kDa dimers under non-reducing conditions; source: endogenous, lysates of healthy C57BL/6 murine organs; endogenous, conditioned medium of FGF2-T-MAE cells
stoichiometry N [2]: 2

Binder: B3
Kd [1]: 73 nM
stoichiometry N [3]: 2

More lines, now with the values ahead:

Kd [1]: 73 nM
B1: his-tagged gremlin^C141A mutant, rat (natural protein)
chain: KKKGSQGAIPPPDKAQHNDSEQTQSPPQPGSRTRGRGQGRGTAMPGEEVLESSQEALHVTERKYLKRDWCKTQPLKQTIHEEGCNSRTIINRFCYGQCNSFYIPRHIRKEEGSFQSASFCKPKKFTTMMVTLNCPELQPPTKKKRVTRVKQCRCISIDLD

binding result [4]: binds
binding result [5]: binds
B4: human BMP4 (ligand, UniProt P12644 293-408, looked up)
chain: SPKHHSQRARKKNKNCRRHSLYVDFSDVGWNDWIVAPPGYQAFYCHGDCPFPLADHLNSTNHAIVQTLVNSVNSSIPKACCVPTELSAISMLYLDEYDKVVLKNYQEMVVEGCGCR
notes: bone morphogenetic protein 4, human; the ELISA paragraph says only human BMP4; also called immobilized BMP4; source: bought: R&D

Source: article PMC5085234, “Monomeric gremlin is a novel vascular endothelial growth factor receptor-2 antagonist” (Oncotarget, 2016)
